The values below are quoted from earlier work in paper PMC7083049.

The data set addresses histone H4 (Homo sapiens) (UniProt P62805).

One may read the Kd as the equilibrium constant for the complex coming apart. On to “JMJD2A Tudor domains (from UniProt O75164)”, for which the Kd is 2000 nM.
